Details in all cases: tags: N-term SV40 NLS, XTEN linker + C-term nucleoplasmin NLS
One data set concerns the target T1, Nuclease S (synthetic construct).
T1 chain: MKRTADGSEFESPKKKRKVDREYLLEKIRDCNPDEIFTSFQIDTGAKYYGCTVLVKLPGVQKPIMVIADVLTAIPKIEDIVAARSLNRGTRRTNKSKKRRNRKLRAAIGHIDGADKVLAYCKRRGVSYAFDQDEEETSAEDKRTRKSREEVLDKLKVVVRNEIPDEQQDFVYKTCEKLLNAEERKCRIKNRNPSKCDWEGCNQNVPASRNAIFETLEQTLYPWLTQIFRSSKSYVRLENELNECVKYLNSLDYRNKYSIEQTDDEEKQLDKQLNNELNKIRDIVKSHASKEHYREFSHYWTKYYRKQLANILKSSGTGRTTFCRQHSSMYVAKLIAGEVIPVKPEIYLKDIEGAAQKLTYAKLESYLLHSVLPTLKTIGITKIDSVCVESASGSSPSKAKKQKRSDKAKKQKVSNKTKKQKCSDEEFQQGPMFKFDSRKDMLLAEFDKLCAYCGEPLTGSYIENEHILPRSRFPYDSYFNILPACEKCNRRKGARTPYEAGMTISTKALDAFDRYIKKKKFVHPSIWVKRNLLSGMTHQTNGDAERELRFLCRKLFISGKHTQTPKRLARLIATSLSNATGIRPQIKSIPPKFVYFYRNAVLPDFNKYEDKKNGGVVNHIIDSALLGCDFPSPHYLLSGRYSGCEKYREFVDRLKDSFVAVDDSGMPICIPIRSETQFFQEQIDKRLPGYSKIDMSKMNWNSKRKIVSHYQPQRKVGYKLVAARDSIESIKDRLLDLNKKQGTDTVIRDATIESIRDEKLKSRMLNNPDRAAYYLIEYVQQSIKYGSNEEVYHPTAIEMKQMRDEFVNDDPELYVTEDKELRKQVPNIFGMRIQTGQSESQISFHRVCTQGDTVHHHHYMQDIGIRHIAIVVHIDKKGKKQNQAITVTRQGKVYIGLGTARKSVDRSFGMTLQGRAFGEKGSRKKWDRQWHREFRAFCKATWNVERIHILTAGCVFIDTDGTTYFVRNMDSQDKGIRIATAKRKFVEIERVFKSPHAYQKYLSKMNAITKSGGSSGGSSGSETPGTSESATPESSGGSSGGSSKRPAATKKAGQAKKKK
Briefly: cell_activity; HEK293T; PAM AGCC 3'. The procedure:
HEK293T cells were transfected with plasmids expressing the Nuclease S polypeptides and the gRNAs provided herein following the methods provided in Example 1 above. Gene editing efficiencies were determined by NGS following the methods also provided in Example 1. The NGS results were analyzed also following the methods provided in Example 1 above.
Each Nuclease S variant was cloned as described in Example 6. HEK293T cells were further transfected with a plasmid encoding a Nuclease S variant and a plasmid encoding an RNA guide of Table 11, followed by NGS analysis, as described in Example 5. For each target, indel ratios, referring to the percentage of NGS reads comprising indels, were calculated for the reference Nuclease S (SEQ ID NO: 49) and for each Nuclease S variant. The indel ratios shown in Table 13 were calculated as the average of two bioreplicates, each of which contained two technical replicates.

Another data set has as its target T2, Nuclease H T783R (synthetic construct, T783R).
T2 chain: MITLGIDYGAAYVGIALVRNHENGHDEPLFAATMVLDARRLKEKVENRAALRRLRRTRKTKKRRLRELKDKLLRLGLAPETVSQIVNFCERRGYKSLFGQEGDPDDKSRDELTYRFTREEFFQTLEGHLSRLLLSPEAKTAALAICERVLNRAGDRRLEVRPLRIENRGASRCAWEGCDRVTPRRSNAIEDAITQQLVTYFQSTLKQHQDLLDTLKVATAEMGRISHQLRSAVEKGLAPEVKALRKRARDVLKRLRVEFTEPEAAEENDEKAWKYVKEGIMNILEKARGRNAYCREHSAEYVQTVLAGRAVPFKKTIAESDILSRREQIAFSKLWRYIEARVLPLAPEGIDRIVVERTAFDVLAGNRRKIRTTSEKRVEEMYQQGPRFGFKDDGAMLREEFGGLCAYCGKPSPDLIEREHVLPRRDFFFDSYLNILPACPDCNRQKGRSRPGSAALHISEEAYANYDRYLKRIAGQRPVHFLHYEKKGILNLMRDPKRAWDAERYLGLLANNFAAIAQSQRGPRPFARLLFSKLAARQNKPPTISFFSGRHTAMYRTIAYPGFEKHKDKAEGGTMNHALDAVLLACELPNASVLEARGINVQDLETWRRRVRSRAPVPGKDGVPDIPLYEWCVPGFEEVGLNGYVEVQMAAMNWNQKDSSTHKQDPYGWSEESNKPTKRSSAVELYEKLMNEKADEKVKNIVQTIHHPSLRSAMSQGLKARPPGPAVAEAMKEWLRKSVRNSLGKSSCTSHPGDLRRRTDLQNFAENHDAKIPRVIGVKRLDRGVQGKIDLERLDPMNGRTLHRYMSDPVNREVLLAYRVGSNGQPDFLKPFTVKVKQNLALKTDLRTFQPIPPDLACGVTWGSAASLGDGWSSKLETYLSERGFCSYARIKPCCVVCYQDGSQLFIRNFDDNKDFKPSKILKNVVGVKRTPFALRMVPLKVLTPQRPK
Description: cell_activity; HEK293T; PAM CAC. The procedure:
HEK293T cells were transfected with plasmids expressing the Nuclease H polypeptides and the gRNAs provided herein following the methods provided in Example 1 above. Gene editing efficiencies were determined by NGS following the methods also provided in Example 1. The NGS results were analyzed also following the methods provided in Example 1 above.
Indel ratios, referring to the percentage of NGS reads comprising indels, were calculated for the reference and for each variant. The indel ratios used for fold change calculations were the average of two technical replicates. To then calculate fold change in indel ratios, the indel ratio for each variant was divided by the indel ratio for the reference. […] Numbering is relative to the reference nuclease of SEQ ID NO: 64 (i.e., without an NLS).

Data set [1] deals with T3, Nuclease H (synthetic construct).
T3 chain: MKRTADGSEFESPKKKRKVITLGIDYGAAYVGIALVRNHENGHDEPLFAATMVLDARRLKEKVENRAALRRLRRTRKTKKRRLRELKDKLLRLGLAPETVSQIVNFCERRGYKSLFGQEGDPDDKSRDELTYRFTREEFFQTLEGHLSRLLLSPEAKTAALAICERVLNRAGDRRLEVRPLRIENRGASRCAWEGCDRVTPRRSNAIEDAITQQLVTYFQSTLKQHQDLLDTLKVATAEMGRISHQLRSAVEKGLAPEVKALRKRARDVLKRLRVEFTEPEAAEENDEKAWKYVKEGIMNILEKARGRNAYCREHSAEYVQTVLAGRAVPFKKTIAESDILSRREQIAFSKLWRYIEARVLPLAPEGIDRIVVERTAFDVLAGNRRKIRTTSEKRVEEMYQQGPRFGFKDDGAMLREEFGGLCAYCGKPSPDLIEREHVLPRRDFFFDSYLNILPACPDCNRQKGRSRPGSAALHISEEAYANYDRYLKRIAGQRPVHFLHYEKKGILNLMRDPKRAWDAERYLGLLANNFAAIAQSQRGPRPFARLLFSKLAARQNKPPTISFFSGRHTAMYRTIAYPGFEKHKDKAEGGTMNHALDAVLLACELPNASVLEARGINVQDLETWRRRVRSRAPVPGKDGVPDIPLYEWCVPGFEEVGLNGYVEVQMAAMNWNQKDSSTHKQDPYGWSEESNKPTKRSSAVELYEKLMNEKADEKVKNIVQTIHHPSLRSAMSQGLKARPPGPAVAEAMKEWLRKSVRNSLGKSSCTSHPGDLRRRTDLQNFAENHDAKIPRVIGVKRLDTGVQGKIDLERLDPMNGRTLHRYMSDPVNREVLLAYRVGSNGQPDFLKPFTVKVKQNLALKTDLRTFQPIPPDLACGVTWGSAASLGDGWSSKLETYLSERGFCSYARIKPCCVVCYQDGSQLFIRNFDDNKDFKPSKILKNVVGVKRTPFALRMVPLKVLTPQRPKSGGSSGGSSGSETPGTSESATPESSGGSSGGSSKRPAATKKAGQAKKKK
Briefly: cell_activity; HEK293T; PAM CAC 3'.

For data set [2], the target named is T3, Nuclease H. Briefly: cell_activity; HEK293T; PAM GAC 3'.

The values that follow come from US20260275312, “CRISPR NUCLEASE POLYPEPTIDES AND GENE EDITING SYSTEMS COMPRISING SUCH” (ARBOR BIOTECHNOLOGIES, INC., published 2026).

B1: S EMX1-T4 RNA guide ; EMX1-T4 target (S) (ssRNA ; dsDNA)
RNA: AUGACUCCAGGCCUCCCCAAGUUGUAUUCGGAUGGGAGUAAAAGGUUGAGUACACCUGGAAACAAAACGACAUAAAGGUGUUCUCCCAUCUGUGUACAAAGAGCAGAUAUAUGAGUUGAUAAGUAAUAUGUUGCACGUAUGGACUUUGACAGUCUGUACCUCUGCGUGAAAGACAUAUUGCGUUAUUCAUAUAUCUGUGAGUCUGUUCUAAAUUUAAAGGUUUAGGGAA
DNA 1: ATGACTCCAGGCCTCCCCAA
DNA 2: TTGGGGAGGCCTGGAGTCAT
Consider B1, for which the activity with Nuclease S stood at 0.0265 indel ratio.

B2: H EMX1-T5 RNA guide ; EMX1-T5 target (H) (ssRNA ; dsDNA)
RNA: GAGGCCUGGAGUCAUGGCCCGUUUCAAUCAACCUGAUCUCUCUGCUUGCGCUGCAGGCUUCAUAAGAUCAGUAGGUUGAAAAGAGCAUCCGUCCGACAUGCACUCCGGGAUGGGGCAGUCCCGGCUCUUGCGGUUCCCGAUGCAGUUAUGUGUCCGCGGAACACGGUGUCGGACACGUCGCAAGACAGGAUGUGAGCCCAUUAUCCACAUUAGGAUCAAUGUACGCAUGAGCAGUCCGCAAUGCCGGGGACGCU
DNA 1: GAGGCCTGGAGTCATGGCCC
DNA 2: GGGCCATGACTCCAGGCCTC
With B2, the “fold change in indel ratio vs reference” value with Nuclease H T783R worked out at 4.33 fold indel vs reference. Moreover, in the data set with Nuclease H [1], the activity came out at 0.032 indel ratio.

B3: S VEGFA-T4 RNA guide ; VEGFA-T4 target (S) (ssRNA ; dsDNA)
RNA: CUCUACACAAAUCUCUCCAGGUUGUAUUCGGAUGGGAGUAAAAGGUUGAGUACACCUGGAAACAAAACGACAUAAAGGUGUUCUCCCAUCUGUGUACAAAGAGCAGAUAUAUGAGUUGAUAAGUAAUAUGUUGCACGUAUGGACUUUGACAGUCUGUACCUCUGCGUGAAAGACAUAUUGCGUUAUUCAUAUAUCUGUGAGUCUGUUCUAAAUUUAAAGGUUUAGGGAA
DNA 1: CTCTACACAAATCTCTCCAG
DNA 2: CTGGAGAGATTTGTGTAGAG
Consider B3, for which the activity with Nuclease S was 0.0333 indel ratio.

B4: H VEGFA-T6 RNA guide ; VEGFA-T6 target (H) (ssRNA ; dsDNA)
RNA: GACUCUUCAAAUCCUCCCUUGUUUCAAUCAACCUGAUCUCUCUGCUUGCGCUGCAGGCUUCAUAAGAUCAGUAGGUUGAAAAGAGCAUCCGUCCGACAUGCACUCCGGGAUGGGGCAGUCCCGGCUCUUGCGGUUCCCGAUGCAGUUAUGUGUCCGCGGAACACGGUGUCGGACACGUCGCAAGACAGGAUGUGAGCCCAUUAUCCACAUUAGGAUCAAUGUACGCAUGAGCAGUCCGCAAUGCCGGGGACGCU
DNA 1: GACTCTTCAAATCCTCCCTT
DNA 2: AAGGGAGGATTTGAAGAGTC
With B4, in the data set with Nuclease H [2], the activity was 0.0378 indel ratio.
